Measurements as given in US20200317768A1 (published 2020).
Residue numbers refer to the chain shown, from its start.

T1: human FcγRIIaR extracellular domain, His-tagged (human, UniProt P12318 34-217)
T1 construct: also called human FcγRIIa (type R); FcgRIIaR; not shown: His-tag added to the C-terminus
T1 chain: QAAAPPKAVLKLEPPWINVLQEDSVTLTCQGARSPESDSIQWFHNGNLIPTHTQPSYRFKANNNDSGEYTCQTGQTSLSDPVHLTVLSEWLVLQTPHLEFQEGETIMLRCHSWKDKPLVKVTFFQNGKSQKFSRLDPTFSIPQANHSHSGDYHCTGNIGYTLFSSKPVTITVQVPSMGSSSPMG

T2: human FcγRIIb extracellular domain, His-tagged (human, UniProt P31994 43-217)
T2 construct: also called FcgRIIb (human); not shown: His-tag added to the C-terminus
T2 sequence: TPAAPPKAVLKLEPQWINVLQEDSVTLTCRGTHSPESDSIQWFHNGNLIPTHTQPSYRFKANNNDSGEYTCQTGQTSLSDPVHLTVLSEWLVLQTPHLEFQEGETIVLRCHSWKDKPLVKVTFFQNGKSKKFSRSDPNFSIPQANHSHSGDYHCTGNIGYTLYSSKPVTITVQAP

T3: cynomolgus monkey FcγRIIa1 extracellular domain, His-tagged (cynomolgus monkey)
T3 construct: also called cyno FcγRIIa1; FcgRIIa1; not shown: His-tag added to the C-terminus
T3 chain: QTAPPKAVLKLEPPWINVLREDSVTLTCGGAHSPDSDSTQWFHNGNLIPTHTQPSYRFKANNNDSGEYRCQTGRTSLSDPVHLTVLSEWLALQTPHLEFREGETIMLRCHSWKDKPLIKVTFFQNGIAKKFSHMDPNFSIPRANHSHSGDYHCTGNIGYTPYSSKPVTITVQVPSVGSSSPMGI

T4: cynomolgus monkey FcγRIIa2 extracellular domain, His-tagged (cynomolgus monkey)
T4 construct: also called cyno FcγRIIa2; FcgRIIa2; not shown: His-tag added to the C-terminus
T4 chain: T3 chain with P95T, T121A, I127K, A128S, K130N, D135N, R142Q

T5: cynomolgus monkey FcγRIIa3 extracellular domain, His-tagged (cynomolgus monkey)
T5 construct: also called cyno FcγRIIa3; FcgRIIa3; not shown: His-tag added to the C-terminus
T5 chain: T3 chain with P95T, T121A, A128S, H133P, D135N

T6: cynomolgus monkey FcγRIIb extracellular domain, His-tagged (cynomolgus monkey)
T6 construct: also called cyno FcγRIIb; cynoFcγRIIb; not shown: His-tag added to the C-terminus
T6 chain: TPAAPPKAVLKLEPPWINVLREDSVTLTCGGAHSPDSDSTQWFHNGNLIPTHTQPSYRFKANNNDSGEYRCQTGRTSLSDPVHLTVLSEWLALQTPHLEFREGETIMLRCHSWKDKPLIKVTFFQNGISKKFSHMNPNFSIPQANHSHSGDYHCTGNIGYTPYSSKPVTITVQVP

T7: human FcγRIIaH extracellular domain, His-tagged (human, UniProt P12318 34-217)
T7 construct: also called human FcγRIIa (type H); FcgRIIaH; not shown: His-tag added to the C-terminus
T7 sequence: T1 chain with R134H

B1: M103205H795-MY329 / M103202L889-SK1 (antibody, human IgG1, kappa)
heavy: QVTLKESGPVLVKPTETLTLTCTVSGIDLSHDDISWVRQAPGKGLEWVGIISYAGSTYYASWAKGRLTISKDTSKNQVVLTMTNMDPVDTATYYCARGVPAYSHGGDLWGQGTLVTVSSASTKGPSVFPLAPSSKSTSGGTAALGCLVKDYFPEPVTVSWNSGALTSGVHTFPAVLQSSGLYSLSSVVTVPSSSLGTQTYICNVNHKPSNTKVDKKVEPKSCDKTHTCPPCPAPELLDGPSVFLFPPKPKDTLMISRTPEVTCVVVDVSDEDPEVKFNWYVDGVEVHNAKTKPREELYNSTYRVVSVLTVLHQDWLNGKEYKCKVSNKALPKPIEKTISKAKGQPREPQVYTLPPSREEMTKNQVSLTCLVKGFYPSDIAVEWESNGQPENNYKTTPPVLDSDGSFFLYSKLTVDKSRWQQGNVFSCSVMHEALHNHYTQKSLSLSP
light: DIVMTQSPATLSLSPGERATLSCTSSQSVYHANWLSWFQQKPGQPPKLLIYWASTLAYGVPSRFSGSGSGTDFTLTISSLQPEDAATYYCAGGYGGGRYAFGQGTKVEIKRTVAAPSVFIFPPSDEQLKSGTASVVCLLNNFYPREAKVQWKVDNALQSGNSQESVTEQDSKDSTYSLSSTLTLSKADYEKHKVYACEVTHQGLSSPVTKSFNRGEC
notes: Fc variant made by introducing the substitutions into M103205H795-SG1; the list of substitutions runs over r151c2 and r152c2; Expressed with M103202L889-SK1 as light chain
B2: M103205H795-MY327 / M103202L889-SK1 (antibody, human IgG1, kappa)
heavy: B1 heavy with D270E
light: B1 light
notes: Fc variant made by introducing the substitutions into M103205H795-SG1; the list of substitutions runs over r149c2 and r150c2; Expressed with M103202L889-SK1 as light chain
B3: M103205H795-MY325 / M103202L889-SK1 (antibody, human IgG1, kappa)
heavy: B1 heavy with L297Q
light: B1 light
notes: expressed with M103202L889-SK1 as light chain

Molecular target: T1, human FcγRIIaR extracellular domain, …
Experiment: SPR (BIACORE), antibody captured on chip, FcγR as analyte, 25 C; KD of SG1 divided by KD of the variant
Procedure: (§1) After the measurement, the antibody captured on the chip was washed off by allowing reaction with 10 mM glycine-HCl, pH1.5 and 25 mM NaOH so that the chip was regenerated and used repeatedly. The sensorgrams obtained as measurement results were analyzed by the 1:1 Langmuir binding model using the BIACORE® Evaluation Software to calculate the binding rate constant ka (L/mol/s) and dissociation rate constant kd (l/s), and the dissociation constant KD (mol/L) was calculated from these values. […] Regarding such interactions, KD values were calculated using the following 1:1 binding model described in BIACORE® T100 Software Handbook BR1006-48 Edition AE.
(§2) The behavior of interacting molecules according to the 1:1 binding model on BIACORE® can be described by Equation 1: Req=C·R max/(KD+C)+RI, wherein, Req is a plot of steady-state binding levels to analyte concentration. C is concentration, RI is bulk refractive index contribution in the sample, and Rmax is analyte binding capacity of the surface. When this equation is rearranged, KD can be expressed as Equation 2: KD=C·Rmax/(Req−RI)−C. KD can be calculated by substituting the values of Rmax, RI, and C into Equation 1 or Equation 2. From the current measurement conditions, RI=0, C=2 μmol/L can be used.

Row | KD fold for humanFcgRs (SG1 = 1) [fold] | Binder
1 | 5.2 | B1
2 | 3.3 | B2
3 | 3.7 | B3

molecular target: T2, human FcγRIIb extracellular domain, …; experiment: as above
Procedure: as §1, §2

Row | KD fold for humanFcgRs (SG1 = 1) [fold] | Binder
4 | 28.8 | B1
5 | 27 | B2
6 | 17.7 | B3

molecular target: T8, human FcγRIIIaV extracellular domain, His-tagged (human, UniProt P08637 17-208); experiment: as above
T8 construct: also called human FcγRIIIa (allotype V158); FcgRIIIaV; not shown: His-tag added to the C-terminus
Procedure: as §1, §2

T8 sequence (P08637 17-208 F176V): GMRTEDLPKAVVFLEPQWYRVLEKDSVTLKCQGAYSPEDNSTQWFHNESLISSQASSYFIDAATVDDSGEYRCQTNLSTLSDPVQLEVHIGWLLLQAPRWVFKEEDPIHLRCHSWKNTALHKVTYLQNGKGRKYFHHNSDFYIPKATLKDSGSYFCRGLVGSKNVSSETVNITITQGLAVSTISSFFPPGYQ

Row | KD fold for humanFcgRs (SG1 = 1) [fold] | Binder
7 | 0.13 | B1
8 | 0.08 | B2
9 | 0.1 | B3

Molecular target: T3, cynomolgus monkey FcγRIIa1 …
Experiment: as above
Procedure: as §1, §2

Row | KD fold for cynoFcgRs (SG1 = 1) [fold] | Binder
10 | 1.7 | B1
11 | 0.9 | B2
12 | 0.8 | B3

Molecular target: T4, cynomolgus monkey FcγRIIa2 …
Experiment: as above
Procedure: as §1, §2

Row | KD fold for cynoFcgRs (SG1 = 1) [fold] | Binder
13 | 1.6 | B1
14 | 1.1 | B2
15 | 1.2 | B3

Molecular target: T5, cynomolgus monkey FcγRIIa3 …
Experiment: as above
Procedure: as §1, §2

Row | KD fold for cynoFcgRs (SG1 = 1) [fold] | Binder
16 | 4.6 | B1
17 | 3.2 | B2
18 | 2.9 | B3

Molecular target: T6, cynomolgus monkey FcγRIIb extracellular …
Experiment: as above
Procedure: as §1, §2

Row | KD fold for cynoFcgRs (SG1 = 1) [fold] | Binder
19 | 3.1 | B1
20 | 1.8 | B2
21 | 1.8 | B3

molecular target: T9, cynomolgus monkey FcγRIIIaS extracellular domain, His-tagged (cynomolgus monkey, UniProt A3RFZ7 21-206 (rhesus entry)); experiment: as above
T9 construct: also called cyno FcγRIIIaS; FcgRIIIaS; not shown: His-tag added to the C-terminus
Procedure: as §1, §2

T9 sequence (A3RFZ7 21-206): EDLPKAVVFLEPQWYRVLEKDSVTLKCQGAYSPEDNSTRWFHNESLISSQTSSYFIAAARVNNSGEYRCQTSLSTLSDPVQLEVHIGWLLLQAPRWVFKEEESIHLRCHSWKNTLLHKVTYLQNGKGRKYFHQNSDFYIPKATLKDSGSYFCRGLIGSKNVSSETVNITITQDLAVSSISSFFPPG

Row | KD fold for cynoFcgRs (SG1 = 1) [fold] | Binder
22 | 0.16 | B1
23 | 0.08 | B2
24 | 0.09 | B3

molecular target: T7, human FcγRIIaH extracellular domain, …; experiment: as above
Procedure: as §1, §2

Row | KD fold for humanFcgRs (SG1 = 1) [fold] | Binder
25 | 2.6 | B1
26 | 2 | B2
27 | 1.4 | B3
